In patent US20150299307A1 (AbbVie / Abbott, published 2015):

Target: T1, human VEGF-A residues 27-191 of Accession # AAV38412 (human, UniProt P15692 27-191)
T1 construct: range 27-191
Test: SPR (BIAcore T200), cited from Table 21
Protocol: Coupling running buffer was HBS-EP+ running buffer (10 mM HEPES, 150 mM sodium chloride, 3 mM EDTA 0.05% P-20, pH 7.4); assay running buffer was HBS-EP+ with 300 mM sodium chloride and 0.1 mg/mL BSA (Sigma A7906). […] For binding kinetics assay a series of cycles were performed, each cycle consisted of 1) mAb capture, 2) Ag or buffer injection, 3) dissociation phase and 4) regeneration. […] No capture of the antibody was made on the reference surface to serve for primary referencing and as a negative control. […] At the end of each cycle the surface was regenerated with 10 mM glycine, pH 1.5 at a flow rate of 60 μL/min in pulses of 60 and 10 sec. Binding data were fit to the 1:1 Langmuir model with mass transport term included using Biacore T200 Evaluation Software to determine the binding constants.

T1 sequence (P15692 other isoform, or with tags, fused parts or gaps limits assumed): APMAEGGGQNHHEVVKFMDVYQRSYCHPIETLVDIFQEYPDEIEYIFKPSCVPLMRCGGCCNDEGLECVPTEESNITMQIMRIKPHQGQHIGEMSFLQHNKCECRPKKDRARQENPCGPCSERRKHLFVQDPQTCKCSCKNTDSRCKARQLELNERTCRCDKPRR

fold improvement in off-rate over wild type: > 6 fold
B1: bevacizumab variant H97F (taken as IgG format) (antibody, name in Kabat numbering, V domains shown)
VH: EVQLVESGGGLVQPGGSLRLSCAASGYTFTNYGMNWVRQAPGKGLEWVGWINTYTGEPTYAADFKRRFTFSLDTSKSTAYLQMNSLRAEDTAVYYCAKYPFYYGSSHWYFDVWGQGTLVTVSS
VL: DIQMTQSPSSLSASVGDRVTITCSASQDISNYLNWYQQKPGKAPKVLIYFTSSLHSGVPSRFSGSGSGTDFTLTISSLQPEDFATYYCQQYSTVPWTFGQGTKVEIKR
notes: also called H97F mutation alone
